Reference: the supplement of paper PMC11246515
± gives the standard deviation of the averaged measurements.

Experiment: total protein half-life in vivo (active degradation + dilution); higher = more stable protein
[1] = E. coli NCM3722 delta-clpP delta-lon delta-hslV, growth: N-lim chemostat, doubling time 6 h
[2] = E. coli NCM3722 delta-clpP, growth: N-lim chemostat, doubling time 6 h
[3] = E. coli NCM3722 delta-hslV, growth: N-lim chemostat, doubling time 6 h
[4] = E. coli NCM3722 delta-lon, growth: N-lim chemostat, doubling time 6 h
[5] = E. coli NCM3722 delta-smpB, growth: N-lim chemostat, doubling time 6 h
[6] = wild type E. coli NCM3722, growth: C-lim chemostat, doubling time 3 h
[7] = wild type E. coli NCM3722, growth: C-lim chemostat, doubling time 12 h
[8] = wild type E. coli NCM3722, growth: N-lim chemostat, doubling time 6 h
[9] = wild type E. coli NCM3722, growth: N-lim chemostat, doubling time 12 h
[10] = wild type E. coli NCM3722, growth: P-lim chemostat, doubling time 6 h
[11] = wild type E. coli NCM3722, growth: P-lim chemostat, doubling time 12 h
[12] = wild type E. coli NCM3722, growth: C-lim chemostat, doubling time 6 h

MIKSALLVLEDGTQFHGRAIGATGSAVGEVVFNTSMTGYQEILTDPSYSRQIVTLTYPHIGNVGTNDADEESSQVHAQGLVIRDLPLIASNFRNTEDLSSYLKRHNIVAIADIDTRKLTRLLREKGAQNGCIIAGDNPDAALALEKARAFPGLNGMDLAKEVTTAEAYSWTQGSWTLTGGLPEAKKEDELPFHVVAYDFGAKRNILRMLVDRGCRLTIVPAQTSAEDVLKMNPDGIFLSNGPGDPAPCDYAITAIQKFLETDIPVFGICLGHQLLALASGAKTVKMKFGHHGGNHPVKDVEKNVVMITAQNHGFAVDEATLPANLRVTHKSLFDGTLQGIHRTDKPAFSFQGHPEASPGPHDAAPLFDHFIELIEQYRKTAK [P0A6F1]
total protein half-life in vivo [1]: 4.95 ± 1 h
total protein half-life in vivo [2]: 4.51 ± 0.39 h
total protein half-life in vivo [3]: 4.72 ± 0.13 h
total protein half-life in vivo [4]: 5.36 ± 0.35 h
total protein half-life in vivo [5]: 4.6318 ± 0.0031 h
total protein half-life in vivo [6]: 3.18 ± 0.27 h
total protein half-life in vivo [7]: 9.87 ± 0.035 h
total protein half-life in vivo [8]: 4.466 ± 0.015 h
total protein half-life in vivo [9]: 7.43 ± 0.44 h
total protein half-life in vivo [10]: 5.95 ± 0.087 h
total protein half-life in vivo [11]: 12.1 ± 0.28 h

MIKSKIVLLSALVSCALISGCKEENKTNVSIEFMHSSVEQERQAVISKLIARFEKENPGITVKQVPVEEDAYNTKVITLSRSGSLPEVIETSHDYAKVMDKEQLIDRKAVATVISNVGEGAFYDGVLRIVRTEDGSAWTGVPVSAWIGGIWYRKDVLAKAGLEEPKNWQQLLDVAQKLNDPANKKYGIALPTAESVLTEQSFSQFALSNQANVFNAEGKITLDTPEMMQALTYYRDLTANTMPGSNDIMEVKDAFMNGTAPMAIYSTYILPAVIKEGDPKNVGFVVPTEKNSAVYGMLTSLTITAGQKTEETEAAEKFVTFMEQADNIADWVMMSPGAALPVNKAVVTTATWKDNDVIKALGELPNQLIGELPNIQVFGAVGDKNFTRMGDVTGSGVVSSMVHNVTVGKADLSTTLQASQKKLDELIEQH
total protein half-life in vivo [1]: 5.01 h
total protein half-life in vivo [6]: 3 h
total protein half-life in vivo [12]: 4.35 ± 1.8 h
total protein half-life in vivo [7]: 13.3 h

MIKWPWKVQESAHQTALPWQEALSIPLLTCLTEQEQSKLVTLAERFLQQKRLVPLQGFELDSLRSCRIALLFCLPVLELGLEWLDGFHEVLIYPAPFVVDDEWEDDIGLVHNQRIVQSGQSWQQGPIVLNWLDIQDSFDASGFNLIIHEVAHKLDTRNGDRASGVPFIPLREVAGWEHDLHAAMNNIQEEIELVGENAASIDAYAASDPAECFAVLSEYFFSAPELFAPRFPSLWQRFCQFYQQDPLQRLHHANDTDSFSATNVH
total protein half-life in vivo [1]: 4.48 ± 0.42 h
total protein half-life in vivo [2]: 3.08 ± 0.31 h
total protein half-life in vivo [3]: 1.36 ± 0.03 h
total protein half-life in vivo [4]: 1.79 ± 0.075 h
total protein half-life in vivo [5]: 1.51 ± 0.037 h
total protein half-life in vivo [6]: 1.16 ± 0.016 h
total protein half-life in vivo [12]: 1.87 ± 0.28 h
total protein half-life in vivo [7]: 2.19 ± 0.13 h
total protein half-life in vivo [8]: 1.53 h
total protein half-life in vivo [9]: 2.44 ± 0.53 h
total protein half-life in vivo [10]: 1.76 ± 0.39 h
total protein half-life in vivo [11]: 3.29 ± 0.75 h

MILERVEIVGFRGINRLSLMLEQNNVLIGENAWGKSSLLDALTLLLSPESDLYHFERDDFWFPPGDINGREHHLHIILTFRESLPGRHRVRRYRPLEACWTPCTDGYHRIFYRLEGESAEDGSVMTLRSFLDKDGHPIDVEDINDQARHLVRLMPVLRLRDARFMRRIRNGTVPNVPNVEVTARQLDFLARELSSHPQNLSDGQIRQGLSAMVQLLEHYFSEQGAGQARYRLMRRRASNEQRSWRYLDIINRMIDRPGGRSYRVILLGLFATLLQAKGTLRLDKDARPLLLIEDPETRLHPIMLSVAWHLLNLLPLQRIATTNSGELLSLTPVEHVCRLVRESSRVAAWRLGPSGLSTEDSRRISFHIRFNRPSSLFARCWLLVEGETETWVINELARQCGHHFDAEGIKVIEFAQSGLKPLVKFARRMGIEWHVLVDGDEAGKKYAATVRSLLNNDREAEREHLTALPALDMEHFMYRQGFSDVFHRMAQIPENVPMNLRKIISKAIHRSSKPDLAIEVAMEAGRRGVDSVPTLLKKMFSRVLWLARGRAD
total protein half-life in vivo [1]: 6.44 ± 0.23 h
total protein half-life in vivo [2]: 2.21 h

MILFVGFLLMEIVMPQISRTALVPYSAEQMYQLVNDVQSYPQFLPGCTGSRILESTPGQMTAAVDVSKAGISKTFTTRNQLTSNQSILMNLVDGPFKKLIGGWKFTPLSQEACRIEFHLDFEFTNKLIELAFGRVFKELAANMVQAFTVRAKEVYSAR [P0AGL5]
total protein half-life in vivo [1]: 0.854 ± 0.18 h
total protein half-life in vivo [2]: 0.857 h
total protein half-life in vivo [3]: 0.542 h
total protein half-life in vivo [4]: 0.962 h
total protein half-life in vivo [5]: 0.621 ± 0.022 h
total protein half-life in vivo [6]: 0.306 h
total protein half-life in vivo [12]: 0.545 h
total protein half-life in vivo [8]: 0.714 h
total protein half-life in vivo [10]: 0.372 h
total protein half-life in vivo [11]: 1.13 ± 0.68 h

MILHPSLASANPLHYGRELTALDNLDFGSLHLDIEDSSFINNITFGMKTVQAVARQTPHPLSFHFMLARPQRWFNALAEIRPAWIFVHAETLDYPSETLTEIRHTGARAGLVFNPATPIDAWRYLASELDGVMVMTSEPDGQGQRFIPSMCEKIQKVRTAFPQTECWADGGITLAAAQQLAAAGAQHMVIGRALFSSSDYRATLAQFATL
total protein half-life in vivo [1]: 5.63 ± 0.16 h
total protein half-life in vivo [12]: 1.44 h
total protein half-life in vivo [7]: 0.974 h

MINYGVVGVGYFGAELARFMNMHDNAKITCVYDPENGENIARELQCINMSSLDALVSSKLVDCVIVATPNYLHKEPVIKAAKNKKHVFCEKPIALSYEDCVDMVKACKEAGVTFMAGHIMNFFNGVQYARKLIKEGVIGEILSCHTKRNGWENKQERLSWKKMKEQSGGHLYHHIHELDCVQHLLGEIPETVTMIGGNLAHSGPGFGNEDDMLFMTLEFPSGKLATLEWGSAFNWPEHYVIINGTKGSIKIDMQETAGSLRIGGQTKHFLVHETQEEDDDRRKGNMTSEMDGAIAYGHPGKKTPLWLASLIRKETLFLHNILCGAKPEEDYIDLLNGEAAMSAIATADAATLSRSQDRKVKISEIIKHTSVM
total protein half-life in vivo [1]: 5.16 h
total protein half-life in vivo [2]: 4.32 h
total protein half-life in vivo [3]: 4.31 ± 0.18 h
total protein half-life in vivo [4]: 4.79 ± 0.4 h
total protein half-life in vivo [5]: 4.29 ± 0.068 h
total protein half-life in vivo [6]: 2.75 ± 0.66 h
total protein half-life in vivo [12]: 6.07 ± 0.59 h
total protein half-life in vivo [7]: 11.2 ± 1.7 h
total protein half-life in vivo [8]: 4.39 ± 0.38 h
total protein half-life in vivo [9]: 7.48 ± 0.85 h
total protein half-life in vivo [10]: 6.27 ± 0.24 h
total protein half-life in vivo [11]: 13.4 ± 1.4 h

MIPDVSQALAWLEKHPQALKGIQRGLERETLRVNADGTLATTGHPEALGSALTHKWITTDFAEALLEFITPVDGDIEHMLTFMRDLHRYTARNMGDERMWPLSMPCYIAEGQDIELAQYGTSNTGRFKTLYREGLKNRYGALMQTISGVHYNFSLPMAFWQAKCGDISGADAKEKISAGYFRVIRNYYRFGWVIPYLFGASPAICSSFLQGKPTSLPFEKTECGMYYLPYATSLRLSDLGYTNKSQSNLGITFNDLYEYVAGLKQAIKTPSEEYAKIGIEKDGKRLQINSNVLQIENELYAPIRPKRVTRSGESPSDALLRGGIEYIEVRSLDINPFSPIGVDEQQVRFLDLFMVWCALADAPEMSSSELACTRVNWNRVILEGRKPGLTLGIGCETAQFPLPQVGKDLFRDLKRVAQTLDSINGGEAYQKVCDELVACFDNPDLTFSARILRSMIDTGIGGTGKAFAEAYRNLLREEPLEILREEDFVAEREASERRQQEMEAADTEPFAVWLEKHA [P0A6W9]
total protein half-life in vivo [1]: 4.67 ± 0.094 h
total protein half-life in vivo [2]: 4.57 ± 0.48 h
total protein half-life in vivo [3]: 4.96 ± 0.18 h
total protein half-life in vivo [4]: 5.15 ± 0.6 h
total protein half-life in vivo [5]: 4.55 ± 0.18 h
total protein half-life in vivo [6]: 3.36 ± 0.2 h
total protein half-life in vivo [12]: 6.04 ± 0.38 h
total protein half-life in vivo [7]: 9.533 ± 0.031 h
total protein half-life in vivo [8]: 4.35 ± 0.33 h
total protein half-life in vivo [9]: 7.2 ± 0.27 h
total protein half-life in vivo [10]: 6.1209 ± 0.0053 h
total protein half-life in vivo [11]: 11.4 ± 0.35 h
